According to paper PMC5256927, “Proteolysis-Dependent Remodeling of the Tubulin Homolog FtsZ at the Division Septum in Escherichia coli” (PLoS ONE, 2017):
Each block holds one molecule with its values, some of them ahead of it.

Key:
[1] = molecular target: Gfp-ZC67(R379E) (E. coli) (UniProt P0A9A6)
Gfp-ZC67 (E. coli) = Gfp-ZC67 (E. coli) (UniProt P0A9A6)
[2] = molecular target: the molecule itself; test: co-sedimentation; polymers collected by ultracentrifugation (129,000xg, 30 min, 23°C) after 3 min with GTP (2 mM) and a regenerating system in 50 mM MES pH 6.5, 100 mM KCl, 10 mM MgCl2; FtsZ and/or Gfp-FtsZ, 10 μM total; pellets and supernatants by SDS-PAGE
[3] = molecular target: the molecule itself; test: cross-linking + other: sucrose gradient fractionation; without GTP; labeled FtsZ 24 μM in 50 mM MES pH 6.5, 100 mM KCl, 10 mM MgCl2; cross-linked with DSP (0.6 mM), 5–20% sucrose gradient with 40% cushion, 100,000xg, 180 min, 4°C; fractions read by fluorescence

- degradation of Gfp-ZC67(R379E) (3 μM) by ClpXP (1 μM) with ATP (5 mM): loss of fluorescence with time, against Gfp-ZC67 (% more slowly than Gfp-ZC67) [1]: 50
- degradation of Gfp-ZC67 (3 μM) by ClpXP (1 μM) with ATP (5 mM): loss of Gfp fluorescence after 60 min (% of the initial fluorescence) (Gfp-ZC67 (E. coli)): 25
Molecule: ClpXP (from UniProt P0A6H1 1-424; P0A6G7 15-207) (complex)

B1: FtsZ (natural protein, E. coli, UniProt P0A9A6 1-383, looked up)
chain: MFEPMELTNDAVIKVIGVGGGGGNAVEHMVRERIEGVEFFAVNTDAQALRKTAVGQTIQIGSGITKGLGAGANPEVGRNAADEDRDALRAALEGADMVFIAAGMGGGTGTGAAPVVAEVAKDLGILTVAVVTKPFNFEGKKRMAFAEQGITELSKHVDSLITIPNDKLLKVLGRGISLLDAFGAANDVLKGAVQGIAELITRPGLMNVDFADVRTVMSEMGYAMMGSGVASGEDRAEEAAEMAISSPLLEDIDLSGARGVLVNITAGFDLRLDEFETVGNTIRAFASDNATVVIGTSLDPDMNDELRVTVVATGIGMDKRPEITLVTNKQVQQPVMDRYQQHGMAPLTQEQKPVAKVVNDNAPQTAKEPDYLDIPAFLRKQAD
notes: FtsZ, E. coli, cell division protein (tubulin homolog); schematic gives polymerization domain 1-316, unstructured linker 317-369, C-terminal region 370-383; plasmid pET-FtsZ; also called native FtsZ; wild type FtsZ; source: E. coli BL21 (λDE3), purified as described [24,25,72,73]
- binding result [2]: binds

B2: Alexa Fluor labeled FtsZ (FtsZ-AF488) (natural protein, E. coli, UniProt P0A9A6 1-383, looked up)
chain: MFEPMELTNDAVIKVIGVGGGGGNAVEHMVRERIEGVEFFAVNTDAQALRKTAVGQTIQIGSGITKGLGAGANPEVGRNAADEDRDALRAALEGADMVFIAAGMGGGTGTGAAPVVAEVAKDLGILTVAVVTKPFNFEGKKRMAFAEQGITELSKHVDSLITIPNDKLLKVLGRGISLLDAFGAANDVLKGAVQGIAELITRPGLMNVDFADVRTVMSEMGYAMMGSGVASGEDRAEEAAEMAISSPLLEDIDLSGARGVLVNITAGFDLRLDEFETVGNTIRAFASDNATVVIGTSLDPDMNDELRVTVVATGIGMDKRPEITLVTNKQVQQPVMDRYQQHGMAPLTQEQKPVAKVVNDNAPQTAKEPDYLDIPAFLRKQAD
modifications: Alexa Fluor 488 label (site not stated)
notes: FtsZ, E. coli, as m1, labeled with Alexa Fluor; schematic gives regions 1-316, 317-369, 370-383; also called labeled fluorescent FtsZ; Fluorescence-labeled FtsZ; source: E. coli BL21 (λDE3), purified, labeled with Alexa Fluor 488; fluorescent active subunits obtained by cycles of polymerization and depolymerization
- stoichiometry N [3]: 2
